Assay results published in the supplement of paper PMC10724198.
± gives the standard deviation of the averaged measurements.

test system: Saccharomyces cerevisiae; experiment: protein stability index of tFT-peptide fusion (C-terminal peptide) (PSI (0-1 scale)); higher = more stable (slower turnover); conditions: genetic background: wild type; temperature: 30 C
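Further: PSI is a weighted mean of sequencing reads over stability bins, variants kept only with over 10 reads, mCherry proximal and sfGFP distal, peptide attached via GGGS linker.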

Point of comparison: RLLRLLTALPPL, protein stability index 0.6387 ± 0.0026. Against it:
- PPLPPPPPAPAP — within error, 0.634 ± 0.016
- RSSLSGLPPLPP — within error, 0.721 ± 0.14
- NLSLPSPPLTTN — higher, 0.731 ± 0.0082
- TFINVHRFCSAI — within error, 0.647 ± 0.024
- AACLCATYPVGT — higher, 0.752 ± 0.07
- LSAVRFGRVWGG — higher, 0.6959 ± 0.0043
- TCLIFTCVLKFR — lower, 0.485 ± 0.098
- LPPASHLPYLVL — higher, 0.717 ± 0.019
- SWTWLFGFRRGL — within error, 0.746 ± 0.11
- SLWIKRSPVFSF — lower, 0.563 ± 0.014
- CVCAIVDGGTFG — higher, 0.723 ± 0.07
- KRKKEKNQPTKR — higher, 0.6972 ± 0.0044
- FPWPDLPSLLPQ — higher, 0.8 ± 0.14
- VEGGGYVVHSGG — within error, 0.657 ± 0.066
- KKRMDKIKDKKI — within error, 0.713 ± 0.098
- APLTVLTARSLF — higher, 0.763 ± 0.055
- PAHPHPYHPSLH — lower, 0.6265 ± 0.0042
- AIVASAPSLGRS — within error, 0.658 ± 0.038
- GAQVGVRFLFSI — lower, 0.55 ± 0.011
- GKMLSRPRKTEN — higher, 0.711 ± 0.03
- LCQWLIEFTVLF — lower, 0.515 ± 0.025
- QLPALPPLHSSP — higher, 0.6982 ± 0.0022
- NAKGRKQTGKRK — higher, 0.695 ± 0.035
- KAEKMRARQKED — higher, 0.657 ± 0.011
- GIVCGDADMEGG — within error, 0.676 ± 0.051
- PPFPHPSRLPPA — higher, 0.726 ± 0.028
- PKSGPDQPQPPG — within error, 0.591 ± 0.086
- PAVGPDGTIRPL — higher, 0.706 ± 0.037
- LLPVFFISYPSS — higher, 0.6545 ± 0.0053
- LVAAEARIGFAV — higher, 0.7 ± 0.012
- PFIAHSACAALN — lower, 0.604 ± 0.011
- TRGRGDGQLDSA — higher, 0.699 ± 0.024
- SPPPPTLPPAYL — higher, 0.6577 ± 0.0025
- LPAPSPAVPSPP — within error, 0.668 ± 0.033
- ILGDGRLRLISF — within error, 0.682 ± 0.05
- RPPPLLSPPSPP — higher, 0.718 ± 0.026
- LRCPLMYDIFYN — higher, 0.726 ± 0.074
- KGVEVPGERMVG — higher, 0.742 ± 0.021
- CYHIAHPSAYVP — within error, 0.679 ± 0.041
- TQNYPSAFAIPA — lower, 0.552 ± 0.043
- LRPLQPCGLIQC — lower, 0.52 ± 0.022
- SPGFSPPFPPLS — higher, 0.776 ± 0.011
- SAKARTNHAFQF — higher, 0.678 ± 0.0097
- FRLGTMYDILPL — higher, 0.69 ± 0.023
- GGWAGLGAPGVS — higher, 0.697 ± 0.028
- PPPCRSLPLLPP — higher, 0.6546 ± 0.005
- VSLPGTWSSLSA — higher, 0.6554 ± 0.0064
- TYRLLAEPTPPA — higher, 0.702 ± 0.018
- TMVAVTSILGGL — within error, 0.655 ± 0.084
- PPLPLPSPPTPH — within error, 0.654 ± 0.021
- SKKDMWMFVGEG — higher, 0.722 ± 0.032
- VSRGGVAYGRVG — higher, 0.742 ± 0.049
- KNKNKKTPARYR — higher, 0.692 ± 0.015
- QVFITGHQLCVM — lower, 0.535 ± 0.0064
- GVGSTGAKTVRG — higher, 0.693 ± 0.018
- LFSCVFFLCLNF — lower, 0.512 ± 0.0074
- GCSVSRIRSAYV — higher, 0.672 ± 0.0089
- HQCVNLNTIKWV — within error, 0.634 ± 0.021
- ASSLKSTQVSGV — higher, 0.72769 ± 0.00011
- WLLGLRPTVSKE — higher, 0.756 ± 0.068
- GFLVPVALCPVV — lower, 0.557 ± 0.03
- PFSLLPDASPPL — higher, 0.703 ± 0.04
- APPPLPPPTLPT — higher, 0.757 ± 0.041
- RLHAILKRSGLE — higher, 0.722 ± 0.068
- LPKARPRTNPPP — within error, 0.712 ± 0.15
- TALQNAAPRTAS — within error, 0.73 ± 0.11
- CVGPGGACVRSG — higher, 0.6894 ± 0.0017
- PARTPSPPAPSH — within error, 0.657 ± 0.056
- EGVKSGDGGAGG — within error, 0.63832 ± 0.00019
- TRGRGLSGGRFF — within error, 0.658 ± 0.037
- RGDGVRGGKNGR — higher, 0.689 ± 0.034
- HPPHPPPSPCPP — higher, 0.733 ± 0.034
- GAVCRRVWVGSW — higher, 0.674 ± 0.0089
- FGFYTYFRPGLG — higher, 0.698 ± 0.017
- LPPLSLSPPLPP — within error, 0.689 ± 0.049
- LNTVNGRSSTAK — higher, 0.665 ± 0.019
- AHPPPSPPFPRH — higher, 0.658 ± 0.015
- GRVGSLCGWLWR — higher, 0.722 ± 0.02
- VFGAHGRYQDSR — within error, 0.607 ± 0.054
- TYPRPGSSIWLR — lower, 0.572 ± 0.022
- KKSERRGQKDYE — higher, 0.696 ± 0.028
- KAGKFLVGKSLS — within error, 0.657 ± 0.026
- EIEFRLKLGTGV — within error, 0.655 ± 0.04
- CGVHQSRATPMS — within error, 0.663 ± 0.032
- SRPPSPHPLPPP — within error, 0.656 ± 0.027
- PAGFQTPPLVHD — within error, 0.708 ± 0.091
- QFRCAIFRLSFV — lower, 0.613 ± 0.023
- LPAPPPPPPSPL — within error, 0.71 ± 0.074
- GVWTRTWSLQWI — lower, 0.561 ± 0.015
- RHGRDNPSGRLN — higher, 0.6902 ± 0.0046
- HICFPALKPGGA — within error, 0.6401 ± 0.0039
- LAPPIRPCPPSP — within error, 0.681 ± 0.056
- RHRFDHWGPGPW — higher, 0.72 ± 0.055
- WVRVSVPAVGRI — higher, 0.7035 ± 0.0067
- QTKKKLTQSQRT — higher, 0.694 ± 0.019
- GRVGFGSGAWLR — higher, 0.669 ± 0.0021
- FGLWSSCGWWWT — within error, 0.64 ± 0.041
- PGAGKRLIERVK — within error, 0.593 ± 0.062
- PSPAPLASPPRA — higher, 0.693 ± 0.042
- LPTLPPPTPYAL — within error, 0.652 ± 0.044
- NKFLRSVVRKHE — higher, 0.671 ± 0.011
- LGKGRYNIKINK — higher, 0.695 ± 0.016
- QLLCLFSIPRSA — higher, 0.7241 ± 0.0043
- GCLPSGTPAWFG — higher, 0.751 ± 0.052
- QMSAATLLFSRL — higher, 0.734 ± 0.029
- GRKIIIRKNKIK — within error, 0.613 ± 0.05
- LPPPRPASPGSP — within error, 0.642 ± 0.051
- DKWVRDCLTESR — higher, 0.691 ± 0.014
- EAEEVGRVVLKG — within error, 0.643 ± 0.067
- RIMFVGYPLDWL — within error, 0.674 ± 0.041
- VVGAGTEWMVEV — within error, 0.642 ± 0.025
- AGVVARTRRDGG — higher, 0.708 ± 0.035
- TAYRFYSYESSF — within error, 0.678 ± 0.082
- AAKQIPRYRTTG — within error, 0.716 ± 0.078
- GGCVWWSWGRGG — within error, 0.652 ± 0.016
- LSQFQEPPFYLF — higher, 0.708 ± 0.044
- MIVSILRSRSFS — lower, 0.557 ± 0.0066
- PASLPPSPPLLL — higher, 0.696 ± 0.039
- ITIVVATRPPGA — lower, 0.617 ± 0.013
- TLGTSPPPAYLS — within error, 0.638 ± 0.013
- CKGIGRGGGVVS — within error, 0.607 ± 0.051
- TWGACGKMLSDR — higher, 0.682 ± 0.026
- FVWSGVGGSGVG — higher, 0.679 ± 0.028
- KVYTALWLLAGN — higher, 0.698 ± 0.028
- KRGKRKEGGKAR — within error, 0.687 ± 0.065
- FFFYFPSLNSFV — within error, 0.696 ± 0.073
- PTLHVGPGTPHA — higher, 0.705 ± 0.058
- REKDMIKSGIKS — higher, 0.724 ± 0.02
- RAVLSNRVEERI — higher, 0.696 ± 0.022
- DGGSEIWGWDGT — within error, 0.743 ± 0.12
- LKAACAKRGVLS — within error, 0.679 ± 0.085
- GRPRPRSGWILL — within error, 0.672 ± 0.067
- GLDEGCRGGEEV — higher, 0.673 ± 0.0092
- KLLLYNILSYWS — lower, 0.56105 ± 0.00055
- LLSSPYPPDTFT — higher, 0.6427 ± 0.0012
- NMYQQIESEYSK — within error, 0.676 ± 0.045
- APSINVQVYWSG — within error, 0.649 ± 0.041
- LIISDVTGFSHL — higher, 0.6576 ± 0.0029
- LPLMVPIPLLLP — within error, 0.648 ± 0.024
- MPGSLPVSRVLL — higher, 0.74 ± 0.087
- EQRSKSHVLPPR — higher, 0.737 ± 0.009
- GSPRFSNGCEYF — lower, 0.59 ± 0.026
- PPPRLVPSPPVP — higher, 0.7 ± 0.0039
- RPHVLAHSLLLS — lower, 0.584 ± 0.011
- DERTTLMRGNNV — within error, 0.651 ± 0.017
- LATGCVGVRGHE — higher, 0.719 ± 0.023
- AASPPPRISAWL — higher, 0.746 ± 0.02
- PPLRPFLLPPPS — higher, 0.722 ± 0.077
- CGSNSSLQECGV — within error, 0.679 ± 0.11
- HSLRLPPSVHFP — higher, 0.6797 ± 0.004
- SLPPPRSLSFPF — higher, 0.673 ± 0.011
- PNPLCQPPTGRP — within error, 0.705 ± 0.14
- WDGAGGGFGLVV — higher, 0.726 ± 0.061
- FFVCCGTRLIGL — higher, 0.716 ± 0.04
- VRRVRGSKFFWR — within error, 0.609 ± 0.12
- CNTPGLSHELLH — higher, 0.786 ± 0.11
- GVLVGGERRWVL — higher, 0.699 ± 0.053
- SPPPPILPCKPL — higher, 0.716 ± 0.031
- ETQEAKGGMTRQ — higher, 0.667 ± 0.0091
- LPAHPPAAPGAP — higher, 0.692 ± 0.032
- ILFKSTRAICSL — within error, 0.621 ± 0.051
- HGFSRFAACNGV — higher, 0.666 ± 0.0071
- VPSPRHFPLPPP — within error, 0.647 ± 0.049
- LLPQSPRPLVHS — higher, 0.774 ± 0.065
- PSPTTSRFAPPP — lower, 0.53 ± 0.047
- SCRVVSGLAIWW — within error, 0.734 ± 0.15
- LDRGPFADQAPH — higher, 0.678 ± 0.012
- GMTYEKIKNVIE — within error, 0.651 ± 0.025
- PLPSPSSSSSPI — within error, 0.674 ± 0.043
- CFWSVIGVQFEV — within error, 0.629 ± 0.0095
- GGVVRGVWVGRG — higher, 0.725 ± 0.028
- IWGGAVQARFKG — within error, 0.733 ± 0.14
- SVGQWSGGRACW — higher, 0.751 ± 0.043
- GGRLGRGVVRGW — higher, 0.704 ± 0.011
- SNRQDHACGGSA — within error, 0.687 ± 0.11
- LYPNPPLLPCSP — within error, 0.612 ± 0.046
- VEPLLGHPISRD — higher, 0.702 ± 0.049
- QREKTRSWDIET — higher, 0.686 ± 0.041
- VGAFCLLLGFEG — within error, 0.599 ± 0.038
- EKKRAGEDGRGK — higher, 0.673 ± 0.0081
- TSGLGYVDCPKL — higher, 0.709 ± 0.033
- KQKKKSQTKTRK — higher, 0.718 ± 0.034
- TGMYHSQPYPAA — higher, 0.677 ± 0.0071
- ATHEEGRVRCGV — within error, 0.709 ± 0.078
- AKDSTAVVRLGT — higher, 0.703 ± 0.029
- GGVGGAGGRNRG — higher, 0.674 ± 0.014
- DWVYISAGGRYA — within error, 0.657 ± 0.017
- SCPSFVWLSFPQ — higher, 0.7142 ± 0.0056
- GRDGQTLYLVLL — higher, 0.686 ± 0.03
- PAAPPHGFPPPR — within error, 0.6341 ± 0.0046
- MLHLNPVLHISG — within error, 0.653 ± 0.041
- NINITQNVKNIK — higher, 0.716 ± 0.06
- LPKSRIGPILNG — within error, 0.743 ± 0.12
- SDSREAVLTEEP — within error, 0.625 ± 0.13
- RVKFIEQASRFV — higher, 0.764 ± 0.12
- RPSTRARPKPTP — higher, 0.693 ± 0.0086
- WTLELSGWLRSE — higher, 0.77 ± 0.079
- KKSLNTKIQTRE — higher, 0.707 ± 0.029
- ISPCCGVPWLLR — higher, 0.708 ± 0.025
- PLSPSCTLPPRP — within error, 0.674 ± 0.034
- VARFRGGPVPSF — within error, 0.67 ± 0.045
